Ends that are not written are not given here. * marks the point of attachment. Biotin = O=C1N[C@H]2[C@H](CS[C@H]2CCCCC(=O)*)N1
How the values were obtained:
[1] = molecular target: T1, GST-PSD95 PDZ domain 3 (human); test: G assay
T1 construct: also called PSD95 d3; PSD95 domain 3

[2] = molecular target: T2, GST-PSD95 PDZ domain 1 (human); test: G assay with MBP-nNOS, anti-MBP-HRP detection, FIG. 11
T2 construct: also called PSD95 d1; PSD-95 d1
Experimental: This protein was used in the G assay in place of a labeled peptide to assess the interaction between PSD95 domains 1 and 2 and nNOS, and detection was performed using an HRP-conjugated antibody against MBP. […] MBP/PSD95 indicates a negative control containing MBP without the nNOS sequences.

[3] = molecular target: T2, GST-PSD95 PDZ domain 1; test: G assay
[4] = molecular target: T3, GST-PSD95 PDZ domain 2 (human); test: G assay
T3 construct: also called PSD95 d2; PSD-95 d2

[5] = molecular target: T3, GST-PSD95 PDZ domain 2; test: G assay competition against NMDAR2A or R2B peptide, FIG. 10

T2 sequence (chain, as listed by the source): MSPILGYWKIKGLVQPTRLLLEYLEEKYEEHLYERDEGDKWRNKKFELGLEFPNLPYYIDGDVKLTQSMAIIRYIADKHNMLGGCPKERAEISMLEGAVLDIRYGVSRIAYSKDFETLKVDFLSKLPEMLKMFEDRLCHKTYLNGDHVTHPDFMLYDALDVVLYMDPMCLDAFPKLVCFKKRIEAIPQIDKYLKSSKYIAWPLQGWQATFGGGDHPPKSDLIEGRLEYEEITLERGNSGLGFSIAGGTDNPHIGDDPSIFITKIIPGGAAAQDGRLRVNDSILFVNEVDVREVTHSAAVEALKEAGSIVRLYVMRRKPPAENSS
T1 sequence (chain, as listed by the source): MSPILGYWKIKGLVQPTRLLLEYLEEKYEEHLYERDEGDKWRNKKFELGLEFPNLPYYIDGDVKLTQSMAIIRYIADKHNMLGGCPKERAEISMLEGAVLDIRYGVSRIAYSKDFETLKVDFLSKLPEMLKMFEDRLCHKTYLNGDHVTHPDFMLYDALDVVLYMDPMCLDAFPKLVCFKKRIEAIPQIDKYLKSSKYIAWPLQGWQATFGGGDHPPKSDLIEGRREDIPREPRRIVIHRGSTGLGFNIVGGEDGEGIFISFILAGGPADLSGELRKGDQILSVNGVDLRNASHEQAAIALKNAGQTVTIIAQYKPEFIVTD

Binder	Average OD [1]	binding result [2]	Average OD [3]	Average OD [4]	IC50 [5]
Biotin-ESSGTQSPKRHSGSYLVTSV [ESSGTQSPKRHSGSYLVTSV peptide]	0.7 OD				
Maltose Binding Protein (MBP) fused to amino acids 1-120 of nNOS (other, UniProt P29475 1-120, looked up, not shown: large carriers, range 1-120; also called MBP-nNOS; internal PL of nNOS) MEDHMFGVQQIQPNVISVRLFKRKVGGLGFLVKERVSKPPVIISDLIRGGAAEQSGLIQAGDIILAVNGRPLVDLSYDSALEVLRGIASETHVVLILRGPEGFTTHLETTFTGDGTPKTI		no binding			
YGRKKRRQRRREKHFRETEV (also: N-terminal biotin when used as labelled ligand) [TatTAX: TAT transporter sequence coupled to the C-terminal 9 amino acids of Tax]	2.93 OD		2.81 OD	2.79 OD	100 to 1000 nM

Reference: patent US20110039758A1 (published 2011)
